From a protein production outcome set (Wang et al. 2014)

Assay: label from the status in PepcDB records

Row | Sequence | protein production
1 | MRFDKSCQARAPSAPDGPGVLRFTIFRGEAKKRKAAVSVAGRFCAVACFLRLGSAGLSRCPCYFSPMLERRIVVAVPARDEGAGVVATLRALAAQEGAPPFQTLLLVNNSRDDTAAQARAFARQMPGFRLQVEEVALPPREANVVGARRAALDWAAALAGSDGIIVSTDADTQAAPDWLAALVQPLCANRAVQASAGRILLRATERAALPEPVRRTYLLDTGYRDAASRLRARVLPDPFDPAPRHWQHFGASLALRVSAYRAVGGVPQVPCLEDLALVRALARADLPLRHTPRARVYTSARLCGRVPVGLSTQLGEWARGPQHWRVPGGAEVLRLAQAEAALRRSWQARRLAPKLTAQWLTSEAALGAALHAPRWGLALERAHEVREAEGRWQRTFAPIPVWDALQEVRALLSTLPEERPLTAEVCAP | failed
2 | MRFFYFSGEIMEKILVIRNDKLGDFMQAWPAFAMLKASNPKLKLTALVPSYTASLAEICPFIDHVIIDSKKNDKTDFKRLVQEIKAQQFDGMISFFSNTHNGKLAWKSGIKYRLAPATKWVQILYNHRLTQRRSRSEKSEAEYNQDLVRTFLQKHNMPVVEPKPPYLIFEKSAVENQRVFLQENLGLSANKKWIFVHSGSGGSATNLSLAQYADLIKGLLAEFDCNVVLTAGPGESEKAYELANLVNDLRVAIYDKNKGLVDFAHSLACADLFIAGSTGPLHLSSAFNIPTIGFYPNSRSSQPRRWKPINDVDKHIAFCPPAGKESQMNLELISIDNALAEISLFIRNMWQTSNNI | failed
3 | MRFGPVALSAAKGALLAHSRKAPGWTLAKGTRLGDEDLALLAGLGVAEVVVARLDPGDVHEDEAAARVAAVLLGPGLTLGDAFTGRANLFAGGDGLLRLDAARFDRLNALCEGLTVATLPPFAKVAPRQMVATVKIIPFALPETVIAQAEALLAGAPALEVALFRPMRLALIQTHLPETAGKMLDKTASVTAGRMAALGGGLTVDRRCPHDTRALAACLSAVSAEKDVDLIAVAGASAIVDRGDVIPAAITRAGGRVDHLGMPVDPGNLILLGELAGRVVLGLPGCARSPAINGFDWVLDRLCAGLAVGGADLMAMGVGGLLKDTTARTQPRMAAVTHPSPAAPPRLGALVLAAGLSRRMGGVNKLLLDWRGKPLVAHAVDTVLAAGPAAVAVVIGHQGKAVRAALEGRAIALVENPDPGRGLGSSLKRGLAALPADLDGVIVCLGDMPGLTPRLLSRLIAAFAPLEGRAICLPTFGGRRGNPVLFAARFLPEMMEITGDIGARPVIAAHPDQTCEVAMDALAEGASVLMDVDTPEAAKALLSAGGLEHHHHHH | failed
4 | MRFHFFPQPLDRAAWSVFLVALVLTLLLVWGGDRTQAQVREFSWQNRDVGASDRAFILSFNRLMDWSSVATHLRIEPALEGKASWSGRRFAYTLTQPIPYGQTFKVSLEDAVSVPQGKPIKPFQGQFRSRDRVLVYLGSGAEEGRLILYNLTLQQKIFLTPPNLRVFDFQPYPAGDRILFSAGERGEQMGFDPQLYIVTTGLYFNAPDTPRRQAHPAGEISLILDNSEYQNLRFQLANDGSKIVVQRVNRLQPADSSLWLLDENFQPRRLNQAAAGEFRIAPDNQHLIIAQGQGLAIVPLEATNGESNFDFLPQYGMVLDFSRDGRQVAAVKFNPNFSRSLYVVDIFGEHREVLTINGSIIAGQFDPSGQFLYVILTRIEGEGNYREVPYLALLDLKTKELFKLKDFDPQQELYLSLAPDGRTLAIDAVEGREIPAEVDHGDLYSETAPVTPSPRDLVELPPAPPGSPLPPRQLPAQEHQIWLLPLKLDQDKIVVGMPEPLAPGLQARWLP | failed
5 | MRFPFCTGGKTFVLWDVEVCPIPDGLGPHDVFSNIKRVLMDNGYRGDVSTTPYTDLTKSNGEFNGIPVRHLSAGDRDARLEVYMIDLYSCVVKEDGPLNLMLFVGDISSRSKDFFRVFRLLQSSSSDSSVPLSLTQDGICKALTFGEEVIIRECGERRKVPNSD | not failed
6 | MRFRQLLPLFGALFALYIIWGSTYFVIRIGVESWPPLMMAGVRFLSAGMLLMAFLLLRGEKLPPLRQTINAALIGLLLLAVGNGLVTVAEHQNVPSGIAAVVVATVPLFTLCFSYFFGIKTRKLEWVGIAIGLAGIILLNSGGNLSGNPWGAILILIGSMSWAFGSVYGSRIALPVGMMAGAIEMLAAGVVLLCAAFLSGEKLATLPGLSGLMAVGYLALFGSIIAINAYMYLIRNVSPALATSYAYVNPVVAVLLGTGLGGERLSPVEWAALGVIVFAVVLVTLGKYLFPARAVVTPCKTEDSRQ | failed
7 | MRFVATGDWQLGMTAHYLSTEARPRFHRARLDAVKRIGEIAAEQSCDFVVVCGDVFESNQLDRAIISRTFEVLAAFTVPVVLLPGNHDPLDAASIYDSHAFTSRQPGHVHVLRDSEPFEVRPGVEIIGAPWFSKRPQGDLVAQATQNLAEAAPGKVRIIAGHGAVSTLDPDRESLATIDVDSLKTVLREDRAQFVALGDRHATYAVDERIWYSGAPEVTSRREDDPGNVLLVDIDAQSHASSVEKMHIGRWSYLVVEEDVNSDEDVSHLEQRLADIPDKDSTAVWLILRGTLSTAAKSRLDDILDHATDLFALVSLWERHTDIAVVAADEDFAGLGLSGYLQESLDELAETAAGEDLSASAAQDALGLLYRFARSGS | failed
8 | MRGEFYQQLTNDLETARAEGLFKEERIITSAQQADITVADGSHVINFCANNYLGLANHPDLIAAAKAGMDSHGFGMASVRFICGTQDSHKELEQKLAAFLGMEDAILYSSCFDANGGLFETLLGAEDAIISDALNHASIIDGVRLCKAKRYRYANNDMQELEARLKEAREAGARHVLIATDGVFSMDGVIANLKGVCDLADKYDALVMVDDSHAVGFVGENGRGSHEYCDVMGRVDIITGTLGKALGGASGGYTAARKEVVEWLRQRSRPYLFSNSLAPAIVAASIKVLEMVEAGSELRDRLWANARQFREQMSAAGFTLAGADHAIIPVMLGDAVVAQKFARELQKEGIYVTGFFYPVVPKGQARIRTQMSAAHTPEQITRAVEAFTRIGKQLGVIA | not failed
9 | MRGFFSNPWIRWALSLAFLGVILFFLRDQLDFLKMGIQQIRHVSPVGVALTMVALVLSFVAMARVMQIMLKAGGSPATLKATTALTFAANSWSATLPGGPAFSAILTYKVQRSWGASAVLCSWFFLLSSALSTVWLVALGVIAVFYMGASLNLWSLIATFIAMVGLSGAVYWAANNPDSLARWVRKLTKNREWGFVEKLLGSIEQLRSVSLTGPQFAASTAWSLGNRLFDAISLWICIWAVTGTAPMFEPEPNNTTIAGVLLAYTTAKIAGSIQATPGGIGPIEAAYIAALVATGMTAVEAAGAVIIYRLCSFIIMAIVGWVIYFIYFTPQGLKANESLDVEQDTINSDSNRQSAIERPDT | failed
10 | MRGGSLWQLGQSITRRLAQSDKKVVSRRYFASEADLKKTALYDFHVAHGGKMVPFAGWSMPIQYKDSIMDSTVNCRENGSLFDVAHMCGLSLKGKDCVPFLETLVVADVAGLAPGTGSLTVFTNEKGGAIDDSVITKVTDEHIYLVVNAGCRDKDLAHIEEHMKAFKSKGGDVSWHIHDERSLLALQGPLAAPVLQHLTKEDLSKLYFGNFQILDINGSTCFLTRTGYTGEDGFEISVPDEHAVDLAKAILEKSEGKVRLTGLGARDSLRLEAGLCLYGNDMEQHISPVEAGLTWAIGKRRRAEGGFLGADVILQQLKDGPTIRRVGFFSSGPPARSHSEVHDESGNKIGEITSGGFSPNLKKNIAMGYVKSGQHKTGTKVKILVRGKPYEGSITKMPFVATKYYKPT | failed
11 | MRGLSSLLLMIVLALLLYPLPHGVILIGIMTLSLLSHTLGIISLGILALYLIVFRITNIVGVAIMALGLLVVEIREMEKIRAPMEHFLYLIVAVGLSLLTYFGVYAISLAGVSLDVTLLAVLFLLLLYAFIRISVLSP | failed
12 | MRHFDASQPLRVAVLGTGFGSKVHIPALQHHSETTVQAVYHRQPDRAAAIAVQFGIPNAYSDLDQLLADPAIEAVTIASPPFLHYPMAWAALSAGKSVLLEKPTTLNVEEARALWKLASSQGLTVTLDFEYRFVPAWQYVAELLAEGVIGQPWLVKLDWLMSSRADASRPWNWYALRSQGGGALGALGSHSFDYLAWLFGPARRLQARLFTAIQERPDATTGELKPVDSDDTDLIQLELAEGVPCQISLSSVFRQGRGHWLEVYGDRGTLILGSSNQKDYVHGFQVWFASAGQALQELTVPQRLAFRQEFADGRLAPFLRVVDHWLADLRHGQMTAPSLKEGLYSQLLIDLCWQSQRSGEWQTVPELNRFLLEHHHHHH | failed
